Target: the molecule itself
Test: fluorescence correlation spectroscopy; 15 nM Atto 488-labelled TLL plus non-labelled TLL to 500 nM, no PMMA, broad-range buffer (succinic acid/NaH2PO4/glycine), pH 7 and pH 5; mean diffusion constant compared with the value predicted for the monomer (Hullrad)

B1: Thermomyces lanuginosus lipase (enzyme, UniProt O59952 23-291, looked up)
chain: EVSQDLFNQFNLFAQYSAAAYCGKNNDAPAGTNITCTGNACPEVEKADATFLYSFEDSGVGDVTGFLALDNTNKLIVLSFRGSRSIENWIGNLNFDLKEINDICSGCRGHDGFTSSWRSVADTLRQKVEDAVREHPDYRVVFTGHSLGGALATVAGADLRGNGYDIDVFSYGAPRVGNRAFAEFLTVQTGGTLYRITHTNDIVPRLPPREFGYSHSSPEYWIKSGTLVPVTRNDIVKIEGIDATGGNNQPNIPDIPAHLWYFGLIGTCL
modifications: Atto 488 coupled unspecifically to amines via NHS-ester (15 nM labelled protein, non-labelled enzyme added to 500 nM)
notes: Thermomyces lanuginosus lipase (TLL), commercial enzyme preparation; The PDB entries were used only for computational surface analysis; also called TLL; Atto 488-TLL; source: gift from ASA Spezialenzyme GmbH (Wolfenbüttel, Germany), desalted (HiTrap Desalting) before use
stoichiometry N: 2
